This passage reports activity compared with DbpA:549, percent inhibition of attachment of B. burgdorferi N40 to Dcn and percent inhibition of binding of 125I-labeled Dcn results from patent publication US6312907.

In assay [1] the target is Bovine decorin (Dcn) purified from fetal skin (bovine) (UniProt P21793). The experiment in a line: microtiter wells coated with increasing amounts of Dbps, biotin-labeled Dcn bound for 1 hour.
For assay [2] the target is unchanged. The experiment in a line: competition: Dcn-coated wells preincubated with 200 ng protein, then B. burgdorferi N40; ELISA. Background: In an ELISA, binding on a coated surface is turned into a signal by an enzyme label.
Assay [3] addresses B. burgdorferi N40 spirochetes (low-passage, intact cells). Nature of the assay: competition: spirochetes preincubated with unlabeled competitor, then 125I-labeled Dcn.

As for “DbpA:C25A (site-directed mutant of DbpA:549)”, in assay [1], the activity compared with DbpA:549 is under 80%. Moreover, the percent inhibition of attachment of B. burgdorferi N40 to Dcn in assay [2] was determined as 93%.
For fibrinogen (KabiVitrium), the percent inhibition of binding of 125I-labeled Dcn in assay [3] is under 10%.
For fetuin type IV (Sigma), in assay [3], the percent inhibition of binding of 125I-labeled Dcn is under 10%.
As to thyroglobulin type II (Sigma), in assay [3], the percent inhibition of binding of 125I-labeled Dcn was under 10%.
In the case of “DbpA:549 (recombinant polyhistidine fusion of DbpA of B. burgdorferi strain 297 lacking nine amino terminal residues)”, in assay [2], the percent inhibition of attachment of B. burgdorferi N40 to Dcn is 93%.
For the substance “bovine serum albumin (BSA) (from UniProt P02769)”, the percent inhibition of binding of 125I-labeled Dcn in assay [3] was under 10%.
Still for that read-out and setting: the figure for aggrecan isolated from bovine cartilage is under 10%.
